Data on 16 molecules can be found in patent US5686592, “High-affinity oligonucleotide ligands to immunoglobulin E (IgE)” (NeXstar Pharmaceuticals, Inc.).

In this data set the target is human IgE (Homo sapiens, UniProt P01854-1 P01854-1:1-428). Nature of the data set: filter; modified PBS, 1 mM Mg2+, 37 C. The settings on record: tags: Athens Research Technology; chain copies: 2; label: 32P.

B1: IGEL49.1 (ssRNA)
RNA: GGGAGGACGAUGCGGGUGUGGGGCGGAUAAUGAGUGAACAGAGUGAAAUUCCAGUGUAGCCAGACUGUGCUGUCGCAGACGACUCGCCCGA
modifications: 2'-NH2 on all C and U
What is called Kd is the equilibrium constant for the complex coming apart. A higher Kd goes with a looser complex. In turn, B1 showed a Kd of 39 nM.

B2: IGEL44.1 (ssRNA)
RNA: GGGAGGACGAUGCGGGUGCGGGGCGAGUAUAUGAAACUUGGCUUGGUAAUGAUCAGAAGUAGUGAGAACUGGGUGCAGACGACUCGCCCGA
modifications: 2'-NH2 on all C and U
In the case of B2, binding was put at a Kd of 34 nM.

B3: IGEL25.1 (ssRNA)
RNA: GGGAGGACGAUGCGGGUGUGAAUGGUGUCGUGAGGACUUAUCAGGCUCCGUGGUGCAGACGACUCGCCCGA
modifications: 2'-NH2 on all C and U
With B3, the Kd worked out at 186 nM.

B4: IGEL7.1 (ssRNA)
RNA: GGGAGGACGAUGCGGAGACGCGUGAACACUAGUAUCACAGUUAAGGAUGCGCGCAGACGACUCGCCCGA
modifications: 2'-NH2 on all C and U
B4: binding was characterised by a dissociation constant (Kd) of 142 nM.

B5: IGEL2.2 (ssRNA)
RNA: GGGAGGACGAUGCGGGUGUGGGGCG
modifications: 2'-NH2 on all C and U
The molecule B5 registered a Kd of 44 nM.

B6: IGEL3.1 (ssRNA)
RNA: GGGAGGACGAUGCGGUCCAUCGAUUAGGCGGUCGUGCUGGUGUAGUGUGUAGUGGCAGACGACUCGCCCGA
modifications: 2'-NH2 on all C and U
On to B6, for which the Kd is 56 nM.

B7: IGEL13.1 (ssRNA)
RNA: GGGAGGACGAUGCGGGACGGGGGCGGAAUCAUGCAUGUGAGCGAACAGAGAGAGAGCCGUGUAUCCAUUCGUGGUCAGACGACUCGCCCGA
modifications: 2'-NH2 on all C and U
Molecule B7 showed a Kd of 50 nM.

B8: IGEL11.1 (ssRNA)
RNA: GGGAGGACGAUGCGGAACAGCACGAGUGUACCUAAGACAGGCGAUGGCACUCGUGGUCGAAAUCAUAUAGUGAUGCAGACGACUCGCCCGA
modifications: 2'-NH2 on all C and U
In the case of B8, the Kd turned out to be 129 nM.

B9: IGEL9.1 (ssRNA)
RNA: GGGAGGACGAUGCGGGCGGGGAACAGACGGCUCAGAGCGGCACGAUUGUCAGCCAGCAAUUAUAUCGUGUUGAUGCAGACGACUCGCCCGA
modifications: 2'-NH2 on all C and U
As for B9, the Kd turned out to be 105 nM.

B10: IGEL10.1 (ssRNA)
RNA: GGGAGGACGAUGCGGGCCACGCGUGGUUAGGGAUCGCGGACAGCACAAAUCGAAUUUGAUUCGCACCUGGACGGUCAGACGACUCGCCCGA
modifications: 2'-NH2 on all C and U
As for B10, the Kd is 69 nM.

B11: IGEL8.1 (ssRNA)
RNA: GGGAGGACGAUGCGGACCGCCCGUCGAGGGCUAGGCGUAGAGUCUAACCGGUGCCAGACGACUCGCCCGA
modifications: 2'-NH2 on all C and U
In turn, B11 showed a Kd of 225 nM.

B12: IGEL29.1 (ssRNA)
RNA: GGGAGGACGAUGCGGGUGUCAAUGGUGUUGCGAGGCAAAAAUAACCAGCGCAUAUUCUCGGCCAUGUUGGCGUGCAUACAGACGACUCGCCCGA
modifications: 2'-NH2 on all C and U
As for B12, binding was characterised by a dissociation constant (Kd) of 141 nM.

B13: IGEL2.1 (ssRNA)
RNA: GGGAGGACGAUGCGGGUGUGGGGCGAAUGAGAAACGUUACCAGGAAAUGCGACUGCAGACGACUCGCCCGA
modifications: 2'-NH2 on all C and U
B13: the Kd was determined as 41 nM.

B14: IGEL31.1 (ssRNA)
RNA: GGGAGGACGAUGCGGGUGUGAAUGGUGUUGUGAGGUUCUCGACUGUUUGUGUCUAGCCGUACUUUAGCCUCGGCCAGACGACUCGCCCGA
modifications: 2'-NH2 on all C and U
The molecule B14 displayed a Kd of 134 nM.

B15: IGEL5.1 (ssRNA)
RNA: GGGAGGACGAUGCGGGUAUCGGUACGUGUUGGCUUGGGAAGGGGUCCGACGGUGCAGACGACUCGCCCGA
modifications: 2'-NH2 on all C and U
B15 showed a Kd of 145 nM.

B16: IGEL48.1 (ssRNA)
RNA: GGGAGGACGAUGCGGGAGUGGGGCGAUGAGAGAGAUCAGAGAACUAGAAGUGAUACAAAAUCUGAGGUUGUUGCGCAGACGACUCGCCCGA
modifications: 2'-NH2 on all C and U
Molecule B16 came in with a Kd of 30 nM.
